This passage reports protein stability index results from the supplement of paper PMC10724198.

± gives the standard deviation of the averaged measurements.
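Further: PSI is a weighted mean of sequencing reads over stability bins, variants kept only with over 10 reads, mCherry proximal and sfGFP distal, peptide attached via GGGS linker.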

In this data set the test system is Saccharomyces cerevisiae. In words: protein stability index of tFT-peptide fusion (C-terminal peptide) (PSI (0-1 scale)); higher = more stable (slower turnover). Conditions: genetic background: wild type; temperature: 30 C.
The sequence LGCGDSRSMVSL gave a protein stability index of 0.6875 ± 0.0033.
The figure for LGEAGGWSLGFG is 0.73 ± 0.018.
The figure for LGFDRGGGGAGM is 0.675 ± 0.062; for LGFFGGGRGAGG it is 0.677 ± 0.016; for LGFLRRERLVPS it is 0.697 ± 0.057.
The figure for LGFSCHGRPPCS is 0.699 ± 0.085; for LGFVADLFVWSV it is 0.673 ± 0.069.
Turning to LGFVRLLFPSFS, the protein stability index was 0.758 ± 0.022.
To LGFYGSYGRWWV belongs 0.779 ± 0.085; to LGGCGWVDWWGL, 0.732 ± 0.0096; to LGGGGGGGACGE, 0.655 ± 0.022.
In the case of LGGTGGFRGVRG, the protein stability index worked out at 0.691 ± 0.022.
The figure for LGHITLSERFGS is 0.705 ± 0.21.
To LGKWWDEECGEI belongs 0.7834 ± 0.0042; to LGLGERLSINTF, 0.70035 ± 0.00022.
The figure for LGLSFYPPLIIS is 0.559 ± 0.0094.
For the sequence LGMCGTCQREVG, the protein stability index is 0.708 ± 0.027.
To LGNFSLSARSYM belongs 0.727 ± 0.028; to LGNMRTVEGWGG, 0.684 ± 0.051.
The figure for LGPDSCRLPLAQ is 0.746 ± 0.067; for LGRKWDCLGRYV it is 0.637 ± 0.06.
The figure for LGRPWRECIQIG is 0.66 ± 0.015; for LGRTFEEEKYAY it is 0.767 ± 0.13.
For LGSAAVPGLCRL, the protein stability index turned out to be 0.853 ± 0.0092.
The figure for LGSCPPPPAPPP is 0.638 ± 0.037.
For LGSCRCFAFVSL, the protein stability index amounted to 0.659 ± 0.023.
To LGSFGLASVDGL belongs 0.713 ± 0.02; to LGSITDRLLRRR, 0.772 ± 0.14.
In turn, LGSTPAVKPPCL gave a protein stability index of 0.688 ± 0.019.
To LGSYSALKIGWG belongs 0.592 ± 0.029; to LGTLLWGGAGRG, 0.713 ± 0.01; to LGVALARCLWGT, 0.677 ± 0.022.
The figure for LGVGFFLGFRTG is 0.6508 ± 0.0048; for LGVGGPSVREGE it is 0.706 ± 0.034; for LGVGGRWGGPGA it is 0.691 ± 0.059.
The figure for LGVRGSMGPGGG is 0.683 ± 0.082; for LGVWVGGRGVRG it is 0.747 ± 0.037; for LGWPWGGRGEGL it is 0.606 ± 0.0069.
The sequence LGWRLFNDVRRG gave a protein stability index of 0.707 ± 0.013.
To LGYRCETNYVPD belongs 0.631 ± 0.023; to LHETKRQKKRKR, 0.7187 ± 0.0062.
To LHLPFLPSLPHP belongs 0.727 ± 0.042; to LHPPAPRSPPPR, 0.639 ± 0.041; to LHPPLPRPPYPP, 0.66 ± 0.029.
To LHPRPPLLPSLP belongs 0.608 ± 0.07; to LHRFTYAEVVWA, 0.536 ± 0.031.
For LHSFLLSVGRGF, the protein stability index is 0.681 ± 0.015.
To LIGRPLPRTFMH belongs 0.766 ± 0.074; to LIKATAYRTNRQ, 0.745 ± 0.044.
To LIKVGRRREGTG belongs 0.691 ± 0.059; to LILFLTTSSPLV, 0.608 ± 0.017; to LILSSGSPAFKT, 0.66 ± 0.039.
To LIPTPPPHPPSP belongs 0.679 ± 0.023; to LISGGLSWGDCW, 0.743 ± 0.0099.
LISNTGTKWAMI gave a protein stability index of 0.674 ± 0.053.
To LISSTLRDQKDE belongs 0.701 ± 0.047; to LISVWQLDVRSG, 0.579 ± 0.0023.
In turn, LKALNKFEDTGN returned a protein stability index of 0.668 ± 0.018.
To LKAWQRRWEGVR belongs 0.752 ± 0.026; to LKCGGVRCGSAN, 0.648 ± 0.061.
The figure for LKDEERYKRRKV is 0.709 ± 0.016; for LKFCSTLLKFAS it is 0.564 ± 0.037.
The figure for LKLLIPPSFSLI is 0.611 ± 0.027; for LKMGAWAHTETW it is 0.645 ± 0.033; for LKQNRIKCPWTL it is 0.728 ± 0.017.
Sequence LKTNECIPVTEK displayed a protein stability index of 0.609 ± 0.029.
To LLAHLVIWAPSR belongs 0.634 ± 0.091; to LLANYQRPSPLN, 0.705 ± 0.063.
The figure for LLAPPLPAVPSF is 0.731 ± 0.006; for LLFGMRPMLFSF it is 0.576 ± 0.038; for LLFLVHGLCFSS it is 0.543 ± 0.028.
To LLFPALPPPPVR belongs 0.674 ± 0.028; to LLFPCSVGLGVV, 0.686 ± 0.077.
Turning to LLFRPTPCLPPL, the protein stability index was 0.686 ± 0.022.
LLFRSPPPTVHS gave a protein stability index of 0.769 ± 0.088.
To LLFSNRKVGQQF belongs 0.708 ± 0.011; to LLGRPILINRPL, 0.661 ± 0.0083; to LLGSGTVSGCAG, 0.642 ± 0.04.
The figure for LLHYPHVPLSPI is 0.662 ± 0.021.
The figure for LLICRLFLFTIW is 0.555 ± 0.12; for LLIPPLPSLAPP it is 0.759 ± 0.052.
With LLLFPLPLLPFH, the protein stability index was determined as 0.686 ± 0.037.
To LLLGLPLDVGDS belongs 0.708 ± 0.066; to LLLRSSPVSLSR, 0.7162 ± 0.0034.
The figure for LLLTLVFSFLSC is 0.531 ± 0.0088; for LLPLLPAPRPPF it is 0.691 ± 0.0063.
The figure for LLPPCYFFLTSP is 0.637 ± 0.093; for LLPPPPLPPLPL it is 0.796 ± 0.1.
On to LLPPVLPPTLPP, for which the protein stability index was found to be 0.633 ± 0.0075.
LLPRPSLDPSPP had a protein stability index of 0.682 ± 0.11.
To LLPSLSPPPTPP belongs 0.655 ± 0.051; to LLPSSLPFPPLR, 0.72 ± 0.06.
Regarding LLPYPAEPSPRR, the protein stability index came out at 0.713 ± 0.013.
The figure for LLRLDGGAGRSV is 0.627 ± 0.079.
To LLRPPAPPPLPT belongs 0.642 ± 0.17.
The figure for LLRRLILLQATW is 0.5677 ± 0.0053; for LLSGPPVPPSWS it is 0.653 ± 0.19.
On to LLSLALFACSIC, for which the protein stability index was 0.63 ± 0.023.
As for LLSLLLLSSSPP, the protein stability index was determined as 0.70828 ± 0.00034.
The figure for LLSNDNRIKTIR is 0.725 ± 0.047; for LLSPLFCYSSRS it is 0.6457 ± 0.0013.
The figure for LLSPLLLLASLS is 0.534 ± 0.013; for LLSSPSVSPPPD it is 0.6754 ± 0.0022.
The figure for LLSVSFVGWPLT is 0.634 ± 0.062; for LLTTGGRWWRRP it is 0.669 ± 0.03.
Sequence LLVNSFLIFPPH gave a protein stability index of 0.68474 ± 0.00059.
The figure for LLVPCLQPPFRV is 0.622 ± 0.023; for LLVTPAPRSTHF it is 0.648 ± 0.064; for LLWNFNLCHCEE it is 0.701 ± 0.011.
The figure for LLYANDPTRPVI is 0.652 ± 0.015; for LMDIPGNPRSLY it is 0.604 ± 0.072.
To LMGDRRLFSFSV belongs 0.719 ± 0.12.
LMKSPGGTLTIR had a protein stability index of 0.71 ± 0.053.
To LMPPHPLFLSDI belongs 0.724 ± 0.012; to LMQTGVNNQNTT, 0.72 ± 0.035; to LMWPTSHLPQPQ, 0.734 ± 0.092.
